The results in this text go back to article PMC10331576.

Usually Kd stands for the free concentration of one partner at which half of the binding sites on the other are occupied at equilibrium, for simple one-to-one binding.

This assay concerns the target COVID-2019-Spike-328-585 (RBD) (SARS-CoV-2), P0DTC2. Nature of the assay: BLI; […] (HIS1K) […] (50 μM, 31 μM, and 8.8 μM); 30°C, PBS; 1:1 binding model; Octet HTX. As to conditions: remark: other sources report otherwise.

B1: DC-SIGN.Fc, Q9NNX6 (Fc fusion)
chain: QVSKVPSSISQEQSRQDAIYQNLTQLKAAVGELSEKSKLQEIYQELTQLKAAVGELPEKSKLQEIYQELTRLKAAVGELPEKSKLQEIYQELTWLKAAVGELPEKSKMQEIYQELTRLKAAVGELPEKSKQQEIYQELTRLKAAVGELPEKSKQQEIYQELTRLKAAVGELPEKSKQQEIYQELTQLKAAVERLCHPCPWEWTFFQGNCYFMSNSQRNWHDSITACKEVGAQLVVIKSAEEQNFLQLQSSRSNRFTWMGLSDLNQEGTWQWVDGSPLLPSFKQYWNRGEPNNVGEEDCAEFSGNGWNDDKCNLAKFWICKKSAASCSRDEEQFLSPAPATPNPPPA
B1 registered a Kd of 18.7 µM.
